Residual rate of SCRB^KD (Scribble knockdown) MDCK cells in mixed culture with normal MDCK cells, 24 hr data for one substance are collected here from patent US20220233638A1.

The assay concerns the target canine LILRB3 (ENSCAFG00000028453) on normal MDCK cells (dog). Put plainly: cell-based or functional assay.

canine LILRB3 (ENSCAFG00000028453) on normal MDCK cells (dog), sequence (chain, as listed by the source limits assumed, form in doubt): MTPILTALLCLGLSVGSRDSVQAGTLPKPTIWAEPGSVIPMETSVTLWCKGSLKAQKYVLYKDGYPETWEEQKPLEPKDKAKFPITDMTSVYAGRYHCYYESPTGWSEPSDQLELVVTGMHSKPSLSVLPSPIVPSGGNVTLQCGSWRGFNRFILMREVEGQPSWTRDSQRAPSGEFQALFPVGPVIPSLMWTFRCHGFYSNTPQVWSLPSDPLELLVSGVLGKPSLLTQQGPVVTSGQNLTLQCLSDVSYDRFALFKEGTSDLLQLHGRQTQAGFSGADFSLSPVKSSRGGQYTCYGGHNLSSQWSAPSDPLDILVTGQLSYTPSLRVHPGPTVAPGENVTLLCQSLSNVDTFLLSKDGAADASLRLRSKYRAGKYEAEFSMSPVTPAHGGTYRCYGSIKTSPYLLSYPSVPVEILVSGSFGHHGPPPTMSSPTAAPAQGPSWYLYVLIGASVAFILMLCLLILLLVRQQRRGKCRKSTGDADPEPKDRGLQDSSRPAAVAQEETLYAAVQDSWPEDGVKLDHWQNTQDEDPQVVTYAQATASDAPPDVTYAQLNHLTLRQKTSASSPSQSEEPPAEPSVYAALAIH

For “recombinant protein DLA88-α3 (from UniProt P18466 207-299) (ligand)”, the residual rate of SCRB^KD (Scribble knockdown) MDCK cells in mixed culture with normal MDCK cells, 24 hr is 20%.
